Reference: paper PMC3388541

Experiments:
Conditions in all cases: remark: other sources report otherwise
[1] = biological target: T1, ScHSP26 (Saccharomyces cerevisiae), P15992; assay: native MS
T1 chain: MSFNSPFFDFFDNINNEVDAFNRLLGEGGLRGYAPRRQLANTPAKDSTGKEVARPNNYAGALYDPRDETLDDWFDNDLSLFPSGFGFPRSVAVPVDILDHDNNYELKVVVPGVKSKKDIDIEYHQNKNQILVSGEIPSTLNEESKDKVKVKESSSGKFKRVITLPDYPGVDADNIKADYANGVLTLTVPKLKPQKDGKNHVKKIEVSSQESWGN

[2] = biological target: T1, ScHSP26 (Saccharomyces cerevisiae), …; assay: native MS
[3] = biological target: T1, ScHSP26 (Saccharomyces cerevisiae), …; assay: native MS
[4] = biological target: T1, ScHSP26 (Saccharomyces cerevisiae), …; assay: native MS
[5] = biological target: T1, ScHSP26 (Saccharomyces cerevisiae), …; assay: SEC-MALS
[6] = biological target: T1, ScHSP26 (Saccharomyces cerevisiae), …; assay: native MS
[7] = biological target: T1, ScHSP26 (Saccharomyces cerevisiae), …; assay: native MS
[8] = biological target: T1, ScHSP26 (Saccharomyces cerevisiae), …; assay: native MS

- stoichiometry N [1]: 2 subunits
- stoichiometry N [2]: 2 subunits
- stoichiometry N [3]: 40 subunits
- stoichiometry N [4]: 24 to 42 subunits
- stoichiometry N [5]: 34 subunits
- stoichiometry N [6]: 2 subunits
- stoichiometry N [7]: 40 subunits
- stoichiometry N [8]: 32 to 42 subunits
B1: ScHSP26, P15992 1-214 (natural protein)
chain: T1 chain
